From publication PMC12176259, “Bacterial transcriptional repressor NrdR – a flexible multifactorial nucleotide sensor” (The Febs Journal, 2024)
Several values for one entry are separate records, joined by “and”; a condition that tells them apart may be missing. Identical values can stand only once.

Legend:
[1] = target: the molecule itself; assay: SEC; Superdex 200 PC 3.2/30, 4–8 °C, Tris–HCl pH 9.0, 300 mM NaCl; NrdR pre‐incubated with ADP and dATP, nucleotides in the SEC buffer; 10–90 μM NrdR
[2] = target: the molecule itself; assay: SEC; Superdex 200 PC 3.2/30, 4–8 °C, Tris–HCl pH 9.0, 300 mM NaCl; NrdR pre‐incubated with AMP and dAMP
[3] = target: the molecule itself; assay: SEC; Superdex 200 PC 3.2/30, 4–8 °C, Tris–HCl pH 9.0, 300 mM NaCl; NrdR pre‐incubated with ATP and dATP, nucleotides in the SEC buffer; 7–55 μM NrdR
[4] = target: the molecule itself; assay: SEC; Superdex 200 PC 3.2/30, 4–8 °C, Tris–HCl pH 9.0, 300 mM NaCl; ATP‐loaded NrdR, excess MgCl2 (1 mM or higher); elutes in the void volume
[5] = target: the molecule itself; assay: SEC; ATP‐dATP‐loaded NrdR at high protein concentrations (440–550 μM)
[6] = target: the molecule itself; assay: SEC; Superdex 200 PC 3.2/30, 4–8 °C, Tris–HCl pH 9.0, 300 mM NaCl; NrdR with 0.2 mM ADP and 0.2 mM MgCl2
[7] = target: the molecule itself; assay: SEC; Superdex 200 PC 3.2/30, 4–8 °C, 25 or 50 mM Tris–HCl pH 9.0, 300 mM NaCl; 55 μM apo‐NrdR, no nucleotide effectors
[8] = target: the molecule itself; assay: SEC; Superdex 200 PC 3.2/30, 4–8 °C, Tris–HCl pH 9.0, 300 mM NaCl; ATP‐loaded NrdR (0.1 mM ATP), low MgCl2 (0.1–0.2 mM); 17–55 μM NrdR
[9] = target: the molecule itself; assay: crystal structure; SeMet‐EcoNrdR with ATP and dATP, 10 mg/mL; 0.1 M HEPES pH 7.5, 0.2 M MgCl2, 12.5% PEG 3350, 20 °C; one tetramer in the asymmetric unit

Protein	stoichiometry N [1]	stoichiometry N [2]	stoichiometry N [3]	stoichiometry N [4]	stoichiometry N [5]	stoichiometry N [6]	stoichiometry N [7]	stoichiometry N [8]	binding result [9]
Escherichia coli NrdR (natural protein, E. coli K‐12 strain MG1655, Transcriptional repressor NrdR of E. coli K‐12 strain MG1655, wild type (NP_414947.1); The oligomeric state depends on the loaded nucleotides (apo: dimer); ATP‐dATP, ADP‐dATP, ADP, AMP‐dAMP: tetramer; also called EcoNrdR; E. coli NrdR; source: E. coli BL21(DE3), purified (HisTrap FF Ni‐Sepharose, desalting)) MHCPFCFAVDTKVIDSRLVGEGSSVRRRRQCLVCNERFTTFEVAELVMPRVVKSNDVREPFNEEKLRSGMLRALEKRPVSSDDVEMAINHIKSQLRATGEREVPSKMIGNLVMEQLKKLDKVAYIRFASVYRSFEDIKEFGEEIARLED	4.8 subunits	4.8 subunits	4.5 subunits	> 33 subunits	8 subunits and 16 subunits	4.5 subunits	2.1 subunits	12.1 subunits	–
Selenomethionine‐derivatized Escherichia coli NrdR (natural protein, E. coli K‐12 strain MG1655, selenomethionine in place of methionine, Transcriptional repressor NrdR of E. coli K‐12 strain MG1655, wild type (NP_414947.1), from the same plasmid pET30a(+)::nrdR as m1; Same construct as m1, made in a methionine auxotroph with seleno‐L‐methionine; also called SeMet‐EcoNrdR; Se‐Met substituted EcoNrdR; source: E. coli B834 (DE3) in SelenoMet Minimal Media, purified) MHCPFCFAVDTKVIDSRLVGEGSSVRRRRQCLVCNERFTTFEVAELVMPRVVKSNDVREPFNEEKLRSGMLRALEKRPVSSDDVEMAINHIKSQLRATGEREVPSKMIGNLVMEQLKKLDKVAYIRFASVYRSFEDIKEFGEEIARLED	–	–	–	–	–	–	–	–	binds
